Among the data in the RNAGym collection of RNA variant scans (doi:10.7554/elife.80360) are self-cleavage values, retold here.

To fix the notation:
B1: Hairpin Ribozyme (parent)
chain: GUCCUCUUUCACGUGCGCGUGAAAGAGAGAAGUGAACCAGAGAAACACACGUUGUGGUAUAUUACCUGGUA

In this series the parent is B1. The series can be described thus: self-cleavage, relative activity (ratio to wild type); higher = more cleavage; co-transcriptional.
For GUCCUCUUUCACGUGCGCGUGAAAGAGAGAAGUGAACCAGAGAAACACACGUUGUGUUAUCUUACCUGGUA [G57U A61C], the self-cleavage was 0.0714.
Under GUCCUCUUUCACGUGCGCGUGAAAGAGAGAAGUGAACCAGAGAAACACACGUUGUGUUAGAUUACCUGGUA [G57U U60G] stands 0.177; under GUCCUCUUUCACGUGCGCGUGAAAGAGAGAAGUGAACCAGAGAAACACACGUUGUGCUAUAUGACCUGGUA [G57C U63G], 0.18.
Under GUCCUCUUUCACGUGCGCGUGAAAGAGAGAAGUGAACCAGAGAAACACACGUUGUGUUUUAUUACCUGGUA [G57U A59U] stands 0.411; under GUCCUCUUUCACGUGCGCGUGAAAGAGAGAAGUGAACCAGAGAAACACACGUUGUGGGAUGUUACCUGGUA [U58G A61G], 0.111; under GUCCUCUUUCACGUGCGCGUGAAAGAGAGAAGUGAACCAGAGAAACACACGUUGUGGGAUCUUACCUGGUA [U58G A61C], 0.32.
Next, GUCCUCUUUCACGUGCGCGUGAAAGAGAGAAGUGAACCAGAGAAACACACGUUGUGGAAUAUUACCGGGUA [U58A U67G]: 0.135; GUCCUCUUUCACGUGCGCGUGAAAGAGAGAAGUGAACCAGAGAAACACACGUUGUGGGAUAUUACCUGUUA [U58G G69U]: 0.113; GUCCUCUUUCACGUGCGCGUGAAAGAGAGAAGUGAACCAGAGAAACACACGUUGUGGGAUAGUACCUGGUA [U58G U62G]: 0.304.
For GUCCUCUUUCACGUGCGCGUGAAAGAGAGAAGUGAACCAGAGAAACACACGUUGUGGGAUAUUGCCUGGUA [U58G A64G], the self-cleavage was 0.341.
Under GUCCUCUUUCACGUGCGCGUGAAAGAGAGAAGUGAACCAGAGAAACACACGUUGUGGGAUAUUCCCUGGUA [U58G A64C] stands 0.163; under GUCCUCUUUCACGUGCGCGUGAAAGAGAGAAGUGAACCAGAGAAACACACGUUGUGUUAUAUUACCUGGCA [G57U U70C], 0.075; under GUCCUCUUUCACGUGCGCGUGAAAGAGAGAAGUGAACCAGAGAAACACACGUUGUGCUAUAUUACAUGGUA [G57C C66A], 0.15.
For the variant GUCCUCUUUCACGUGCGCGUGAAAGAGAGAAGUGAACCAGAGAAACACACGUUGUGGUCCAUUACCUGGUA [A59C U60C], the self-cleavage amounted to 0.167.
Consider GUCCUCUUUCACGUGCGCGUGAAAGAGAGAAGUGAACCAGAGAAACACACGUUGUGGUCUAUUUCCUGGUA [A59C A64U], for which the self-cleavage was 0.0804.
Next, GUCCUCUUUCACGUGCGCGUGAAAGAGAGAAGUGAACCAGAGAAACACACGUUGUGGUCUAUUACAUGGUA [A59C C66A]: 0.0564; GUCCUCUUUCACGUGCGCGUGAAAGAGAGAAGUGAACCAGAGAAACACACGUUGUGGUCUCUUACCUGGUA [A59C A61C]: 0.0887; GUCCUCUUUCACGUGCGCGUGAAAGAGAGAAGUGAACCAGAGAAACACACGUUGUGGUCUGUUACCUGGUA [A59C A61G]: 0.207.
Under GUCCUCUUUCACGUGCGCGUGAAAGAGAGAAGUGAACCAGAGAAACACACGUUGUGGCAUAUUAACUGGUA [U58C C65A] stands 1.11; under GUCCUCUUUCACGUGCGCGUGAAAGAGAGAAGUGAACCAGAGAAACACACGUUGUGGCAUAUUAGCUGGUA [U58C C65G], 0.255.
Next, GUCCUCUUUCACGUGCGCGUGAAAGAGAGAAGUGAACCAGAGAAACACACGUUGUGGCCUAUUACCUGGUA [U58C A59C]: 0.304.
For the variant GUCCUCUUUCACGUGCGCGUGAAAGAGAGAAGUGAACCAGAGAAACACACGUUGUGGCGUAUUACCUGGUA [U58C A59G], the self-cleavage came out at 0.272.
Consider GUCCUCUUUCACGUGCGCGUGAAAGAGAGAAGUGAACCAGAGAAACACACGUUGUGGUCUAGUACCUGGUA [A59C U62G], for which the self-cleavage was 0.123.
Next, GUCCUCUUUCACGUGCGCGUGAAAGAGAGAAGUGAACCAGAGAAACACACGUUGUGGUCUACUACCUGGUA [A59C U62C]: 0.0999.
Take GUCCUCUUUCACGUGCGCGUGAAAGAGAGAAGUGAACCAGAGAAACACACGUUGUGGUCUAUUACCUGGUU [A59C A71U]: the self-cleavage was found to be 0.156.
For GUCCUCUUUCACGUGCGCGUGAAAGAGAGAAGUGAACCAGAGAAACACACGUUGUGGAAUAUUACGUGGUA [U58A C66G], the self-cleavage stood at 0.165.
Next, GUCCUCUUUCACGUGCGCGUGAAAGAGAGAAGUGAACCAGAGAAACACACGUUGUGCUAUACUACCUGGUA [G57C U62C]: 0.15.
Next, GUCCUCUUUCACGUGCGCGUGAAAGAGAGAAGUGAACCAGAGAAACACACGUUGUGCUAUAAUACCUGGUA [G57C U62A]: 0.183.
Next, GUCCUCUUUCACGUGCGCGUGAAAGAGAGAAGUGAACCAGAGAAACACACGUUGUGGUCUAUCACCUGGUA [A59C U63C]: 0.199.
With GUCCUCUUUCACGUGCGCGUGAAAGAGAGAAGUGAACCAGAGAAACACACGUUGUGGUCUAUGACCUGGUA [A59C U63G], the self-cleavage amounted to 0.164.
Under GUCCUCUUUCACGUGCGCGUGAAAGAGAGAAGUGAACCAGAGAAACACACGUUGUGUUAUAUUACCUCGUA [G57U G68C] stands 0.211.
As to GUCCUCUUUCACGUGCGCGUGAAAGAGAGAAGUGAACCAGAGAAACACACGUUGUGUUAUAUUACCUAGUA [G57U G68A], the self-cleavage is 0.188.
Under GUCCUCUUUCACGUGCGCGUGAAAGAGAGAAGUGAACCAGAGAAACACACGUUGUGGCAUAUUACCCGGUA [U58C U67C] stands 0.205; under GUCCUCUUUCACGUGCGCGUGAAAGAGAGAAGUGAACCAGAGAAACACACGUUGUGGAAUAUUCCCUGGUA [U58A A64C], 0.143; under GUCCUCUUUCACGUGCGCGUGAAAGAGAGAAGUGAACCAGAGAAACACACGUUGUGGAAUAUUUCCUGGUA [U58A A64U], 0.237.
Take GUCCUCUUUCACGUGCGCGUGAAAGAGAGAAGUGAACCAGAGAAACACACGUUGUGCUAUAUUACCUGGUC [G57C A71C]: the self-cleavage came to 0.356.
Next, GUCCUCUUUCACGUGCGCGUGAAAGAGAGAAGUGAACCAGAGAAACACACGUUGUGCUAUAUUACCUGGUG [G57C A71G]: 0.201; GUCCUCUUUCACGUGCGCGUGAAAGAGAGAAGUGAACCAGAGAAACACACGUUGUGCUAUAUUACCUGGUU [G57C A71U]: 0.157.
